Drawing on patent publication US20050192211A1 (Merck KGaA, published 2005), this text covers ED50, TF-1 cell proliferation (3H-thymidine incorporation); S.D. 0.96; N 10 for 1 substance.

This test has as its target T1, EPO receptor (UniProt P19235 25-508, limits assumed).
T1 sequence (looked up): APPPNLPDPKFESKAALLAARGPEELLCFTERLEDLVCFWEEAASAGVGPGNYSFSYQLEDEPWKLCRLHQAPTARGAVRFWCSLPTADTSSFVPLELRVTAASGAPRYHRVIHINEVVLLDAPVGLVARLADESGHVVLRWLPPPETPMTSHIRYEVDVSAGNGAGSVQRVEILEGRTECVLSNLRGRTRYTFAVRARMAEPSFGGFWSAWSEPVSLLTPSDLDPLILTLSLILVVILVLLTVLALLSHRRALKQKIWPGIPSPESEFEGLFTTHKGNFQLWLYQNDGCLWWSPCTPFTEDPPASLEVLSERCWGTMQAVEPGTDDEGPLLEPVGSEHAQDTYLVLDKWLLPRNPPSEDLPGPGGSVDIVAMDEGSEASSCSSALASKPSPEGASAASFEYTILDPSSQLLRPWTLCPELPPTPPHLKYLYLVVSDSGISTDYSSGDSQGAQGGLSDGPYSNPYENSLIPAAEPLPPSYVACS
Description: cell-based or functional assay.

For EPO (Aranesp®) (ligand), the ED50, TF-1 cell proliferation (3H-thymidine incorporation); S.D. 0.96; N 10 was 2.4 ng/mL.
